Measurements: US20030124152A1

Molecular target: Human collagen Type I (acid soluble) (human) (UniProt P02452)
Assay: cell-based or functional assay

Sequence of UniProt P02452 (P02452 162-1218 limits assumed, chain 1 of 2): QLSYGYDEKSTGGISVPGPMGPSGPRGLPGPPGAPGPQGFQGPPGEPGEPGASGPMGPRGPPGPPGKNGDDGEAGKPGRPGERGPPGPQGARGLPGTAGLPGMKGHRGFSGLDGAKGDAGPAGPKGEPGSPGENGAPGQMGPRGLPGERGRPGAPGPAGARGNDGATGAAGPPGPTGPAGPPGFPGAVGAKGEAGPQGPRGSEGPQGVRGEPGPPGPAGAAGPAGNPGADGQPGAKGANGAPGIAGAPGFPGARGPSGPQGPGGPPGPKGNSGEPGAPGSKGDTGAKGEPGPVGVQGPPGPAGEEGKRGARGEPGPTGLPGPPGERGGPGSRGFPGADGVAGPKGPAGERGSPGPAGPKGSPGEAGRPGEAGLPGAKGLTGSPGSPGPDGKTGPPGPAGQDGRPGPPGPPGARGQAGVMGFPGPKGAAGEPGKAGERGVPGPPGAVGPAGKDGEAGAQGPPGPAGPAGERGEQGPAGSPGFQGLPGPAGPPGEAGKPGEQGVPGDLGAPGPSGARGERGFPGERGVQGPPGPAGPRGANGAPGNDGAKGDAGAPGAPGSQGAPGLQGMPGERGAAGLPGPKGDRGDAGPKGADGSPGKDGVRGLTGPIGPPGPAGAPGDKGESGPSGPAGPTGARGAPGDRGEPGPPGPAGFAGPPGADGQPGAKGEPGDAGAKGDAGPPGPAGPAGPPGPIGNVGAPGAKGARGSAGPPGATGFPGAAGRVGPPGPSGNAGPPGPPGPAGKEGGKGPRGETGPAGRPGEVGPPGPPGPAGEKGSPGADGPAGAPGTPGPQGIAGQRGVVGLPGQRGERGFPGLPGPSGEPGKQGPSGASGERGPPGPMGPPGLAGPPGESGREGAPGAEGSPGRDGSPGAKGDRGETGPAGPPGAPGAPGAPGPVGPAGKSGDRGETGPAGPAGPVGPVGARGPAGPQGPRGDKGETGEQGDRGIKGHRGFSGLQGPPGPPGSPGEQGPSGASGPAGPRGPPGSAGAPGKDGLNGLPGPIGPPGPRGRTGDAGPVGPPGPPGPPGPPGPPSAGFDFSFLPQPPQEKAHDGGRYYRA
Sequence of UniProt P02452 (P08123 80-1119 limits assumed, chain 2 of 2, further chain): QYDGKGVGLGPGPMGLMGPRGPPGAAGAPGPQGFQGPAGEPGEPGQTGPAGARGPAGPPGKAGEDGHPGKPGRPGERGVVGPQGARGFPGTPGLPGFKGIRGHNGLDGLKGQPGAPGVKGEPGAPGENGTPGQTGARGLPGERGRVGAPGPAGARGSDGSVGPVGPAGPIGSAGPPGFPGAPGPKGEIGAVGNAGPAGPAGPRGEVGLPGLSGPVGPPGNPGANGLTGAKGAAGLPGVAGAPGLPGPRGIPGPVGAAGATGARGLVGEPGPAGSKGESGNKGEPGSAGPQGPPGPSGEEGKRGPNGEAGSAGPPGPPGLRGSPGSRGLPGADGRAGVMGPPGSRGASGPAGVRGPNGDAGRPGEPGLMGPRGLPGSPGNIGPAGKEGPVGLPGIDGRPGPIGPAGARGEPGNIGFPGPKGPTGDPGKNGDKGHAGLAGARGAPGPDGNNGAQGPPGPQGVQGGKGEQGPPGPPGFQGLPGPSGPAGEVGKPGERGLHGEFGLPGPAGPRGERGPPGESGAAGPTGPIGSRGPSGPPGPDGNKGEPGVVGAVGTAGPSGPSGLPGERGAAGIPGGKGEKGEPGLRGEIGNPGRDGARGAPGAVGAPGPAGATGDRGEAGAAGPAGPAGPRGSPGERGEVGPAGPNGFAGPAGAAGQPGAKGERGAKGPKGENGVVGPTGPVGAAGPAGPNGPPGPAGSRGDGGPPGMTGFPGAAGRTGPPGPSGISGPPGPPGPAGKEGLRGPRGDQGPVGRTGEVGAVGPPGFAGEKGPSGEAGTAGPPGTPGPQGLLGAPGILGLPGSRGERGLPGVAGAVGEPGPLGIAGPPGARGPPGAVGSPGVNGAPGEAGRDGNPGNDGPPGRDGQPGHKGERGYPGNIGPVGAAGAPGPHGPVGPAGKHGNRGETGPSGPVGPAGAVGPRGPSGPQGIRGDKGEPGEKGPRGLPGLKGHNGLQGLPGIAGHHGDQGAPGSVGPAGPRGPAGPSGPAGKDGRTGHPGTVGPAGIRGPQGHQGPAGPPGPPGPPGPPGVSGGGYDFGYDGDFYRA

B1: human decorin core protein (HDCP) (protein)
chain: VEASGIGPEVPDDRDFEPSLGPVCPFRCQCHLRVVQCSDLGLDKVPKDLPPDTTLLDLQNNKITEIKDGDFKNLKNLHALILVNNKISKVSPGAFTPLVKLERLYLSKNQLKELPEKMPKTLQELRAHENEITKVRKVTFNGLNQMIVIELGTNPLKSSGIENGAFQGMKKLSYIRIADTNITSIPQGLPPSLTELHLDGNKISRVDAASLKGLNNLAKLGLSFNSISAVDNGSLANTPHLRELHLDNNKLTRVPGGLAEHKYIQVVYLHNNNISVVGSSDFCPPGHNTKKASYSGVSLFSNPVQYWEIQPSTFRCVYVRSAIQLGNYK
modifications: possible initiator Met
With B1 as the binder, how does the Collagen Protection Assay, collagen band density, C + D + Z, 0 min (optical density/mm^2) read?
The Collagen Protection Assay, collagen band density, C + D + Z, 0 min (optical density/mm^2) was 10.4.

What about the Collagen Protection Assay, collagen band density, C + D + Z, 30 min (optical density/mm^2) of the same binder?
Its Collagen Protection Assay, collagen band density, C + D + Z, 30 min (optical density/mm^2) is 9.37.

What about the Collagen Protection Assay, collagen band density, C + D + Z, 60 min (optical density/mm^2) of the same binder?
The Collagen Protection Assay, collagen band density, C + D + Z, 60 min (optical density/mm^2) was 5.89.

And the Collagen Protection Assay, collagen band density, C + D + Z, 90 min (optical density/mm^2)?
Its Collagen Protection Assay, collagen band density, C + D + Z, 90 min (optical density/mm^2) is 1.67.

And the Collagen Type I Degradation Rate (%), C + D + Z, 30 min?
The Collagen Type I Degradation Rate (%), C + D + Z, 30 min was 9.49%.

And the Collagen Type I Degradation Rate (%), C + D + Z, 60 min?
The Collagen Type I Degradation Rate (%), C + D + Z, 60 min was 37.1%.

What about the Collagen Type I Degradation Rate (%), C + D + Z, 90 min of the same binder?
The Collagen Type I Degradation Rate (%), C + D + Z, 90 min was 71.6%.
